Two molecules from patent US20210139554A1 (published 2021) can be followed below.

One assay addresses T1, wild-type human IL-2 (human, UniProt P60568 21-153).
T1 construct: The construct used in ELISA and BIACORE is not described; also called hIL-2; WT IL-2
Kind of assay: BIACORE. (Surface plasmon resonance follows binding to a sensor surface in real time, without labels.)

For the next assay, the target named is T2, cynomolgus monkey IL-2 (cynomolgus monkey, UniProt Q29615 21-154, limits assumed).
T2 construct: also called cyno IL-2
T2 sequence (Q29615 21-154 limits assumed): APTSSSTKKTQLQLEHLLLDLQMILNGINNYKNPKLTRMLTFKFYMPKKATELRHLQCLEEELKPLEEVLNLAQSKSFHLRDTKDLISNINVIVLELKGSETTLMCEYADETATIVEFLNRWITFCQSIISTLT
Nature of the assay: BIACORE.

For orientation: Kd means the equilibrium constant for the complex coming apart.

T1 sequence (P60568 21-153 limits assumed): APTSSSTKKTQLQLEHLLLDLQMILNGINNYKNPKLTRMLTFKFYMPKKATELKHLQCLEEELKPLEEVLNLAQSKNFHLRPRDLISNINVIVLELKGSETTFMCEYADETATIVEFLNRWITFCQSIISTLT

B1: 26H7 (antibody, V domains shown)
VH: EVQLVQSGAEVKKPGESLKISCKGSGYRFTNYWIGWVRQMPGKGLEWMGIIYPGDSDTKYSPSFQGQVTISADKSISTAYLQWSSLKASDTAMYYCARHGGYSGRSYYYGMDVWGQGTAVTVSS
VL: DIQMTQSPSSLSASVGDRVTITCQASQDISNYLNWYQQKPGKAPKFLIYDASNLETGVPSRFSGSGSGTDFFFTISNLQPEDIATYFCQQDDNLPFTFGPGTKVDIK
Consider B1, for which the Kd in the assay with wild-type human IL-2 is around 1.3 nM.

B2: 2C3 (antibody, V domains shown)
VH: EVQLVQSGAEVKKPGESLKISCKGSGYRFTSYWIGWVRQMPGKGLEWMGIIYPGDSDTRYSPSFQGQVTISADKSISAAYLQWSSLKASDTAMYYCARQQVAGMLDYWGQGTLVTVSS
VL: EIVLTQSPGTLSLSPGERATLSCRASQSFSSSYLVWYQQKPGQAPRLLIYGASSRATGIPDRFGGSGSGTDFTLTISRLEPEDFAVYYCQQYGSSPLTFGGGTKVEIK
The molecule B2 showed a Kd with cynomolgus monkey IL-2 of around 1.2 nM.
